Data as given in US20240059758A1 (CORAT THERAPEUTICS, published 2024).

B1: hybrid antibody VL STE90-C11 / VH YU536-D04 (antibody, V domains shown)
VH: QVQLVQSGGGLVQPGGSLRLSCAASGLTVSSNYMSWVRQAPGKGLEWVSVIYSGGSTYYADSVKGRFIISRDNSKNTLYLQMNSLRAEDTAVYYCARDLVVMGLDVWGKGTLVTVSS
VL: DIVMTQSPSFLSASVGDRVTITCRASQGISSYLAWYQQKPGKAPKLLIYAASTLQSGVPSRFSGSGSGTEFTLTISSLQPEDFATYYCQQLNSYPPFTFGPGTKVDIK
B2: hybrid antibody VL YU536-D04 / VH STE90-C11 (antibody, V domains shown)
VH: QVQLVESGGGLVQPGGSLRLSCAASGLTVSSNYMSWVRQAPGKGLEWVSVIYSGGSTYYADSVKGRFTISRDDSKNTLYLQMNSLRAEDTAVYYCARDVADAFDIWGQGTMVTVSS
VL: DIQLTQSPSSLSASVGDRVTITCRASQGISSYLAWYQQKPGKAPKLLIYAASTLQSGVPSRFSGSGSGTDFTLTISSLQPEDFATYYCQQLNSYPITFGQGTKLEIK
B3: hybrid antibody VL YU537-H11 / VH STE90-C11 (antibody, V domains shown)
VH: B2 VH
VL: QSVLTQPPSVSAAPGQKVTISCSGSSSNIGNNYVSWYQQLPGTAPKLLIYDTNKRPSGIPDRFSGSKSGTSATLGITGLQTGDEADYYCATWDSSLSVGVFGGGTKLTVL
B4: hybrid antibody VL YU536-D04 / VH YU537-H11 (antibody, V domains shown)
VH: EVQLLESGGGLIQPGGSLRLSCAASGLTVSSNYMSWVRQAPGKGLEWVSVIYSGGSTYYADSVKGRFTISRDNSKNALYLQMNSLRAEDTAVYYCARGESGSPYGMDVWGQGTLVTVSS
VL: B2 VL
B5: hybrid antibody VL STE90-C11 / VH YU537-H11 (antibody, V domains shown)
VH: B4 VH
VL: B1 VL
B6: hybrid antibody VL YU537-H11 / VH YU536-D04 (antibody, V domains shown)
VH: B1 VH
VL: B3 VL

Each binder was assayed against T1, RBD mutant K417N (SARS-CoV-2, UniProt P0DTC2 319-591) (assay: binding study, FIG. 46).
B1: binds.

Each binder was assayed against RBD mutant N501Y (SARS-CoV-2, UniProt P0DTC2 319-591) (assay: binding study, chain shuffling).
B2: binds.
B3: binds.
B4: binds.
B1: binds.
B5: binds.
B6: binds.

Each binder was assayed against T1, RBD mutant K417N (assay: binding study, chain shuffling).
B2: binds.
B3: binds.
B4: binds.
B5: binds.
B6: binds.

What follows are binders tested against receptor binding domain (RBD) of SARS-CoV-2 glycoprotein S, wild-type (SARS-CoV-2, UniProt P0DTC2 319-591) (assay: binding study, chain shuffling (example 19)).
B2: binds.
B3: binds.
B4: binds.
B1: binds.
B5: binds.
B6: binds.
